Test [1] concerns the target CD33 (human) (UniProt P20138). The experiment in a line: direct binding on HL-60 whole cells; direct on cells.
Test [2] addresses CD33 (human) (UniProt P20138). The experiment in a line: direct binding on HL-60 membranes; direct on membranes.
Test [3] concerns the target CD33 (human) (UniProt P20138). The experiment in a line: competitive binding on HL-60 membranes; competitive on membranes.
In test [4] the target is T1, CD33 (human, UniProt P20138 18-364).
T1 construct: whole, on cells; Presented on U-937 cells, HL-60 whole cells, dried HL-60 plasma membranes, THP-1 cells and CD33-transfected 3T3 murine fibroblasts; also called CD33 antigen; human CD33
T1 sequence (P20138 18-364): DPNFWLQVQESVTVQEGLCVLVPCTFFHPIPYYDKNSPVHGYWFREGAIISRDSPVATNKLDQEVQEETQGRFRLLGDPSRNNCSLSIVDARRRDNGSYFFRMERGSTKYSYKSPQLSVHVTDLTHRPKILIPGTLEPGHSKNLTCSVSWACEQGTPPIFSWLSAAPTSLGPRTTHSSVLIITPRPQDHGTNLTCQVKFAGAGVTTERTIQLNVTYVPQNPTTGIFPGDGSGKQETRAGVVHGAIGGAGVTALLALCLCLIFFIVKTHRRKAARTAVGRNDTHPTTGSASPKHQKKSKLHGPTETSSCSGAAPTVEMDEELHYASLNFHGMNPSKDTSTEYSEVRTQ
The experiment in a line: flow cytometry on HL-60 cells. The method, then:
HL-60 cells were incubated with various concentrations of either My9-6 antibody or My9-6-DM1. The cells were then washed and incubated with a secondary FITC-labeled anti-murine IgG antibody. Following an additional wash, cells were fixed with 2% formaldehyde and cell-associated fluorescence was quantified using a BD FACScan flow cytometer.
In general terms: Flow cytometry measures light scatter and fluorescence of single cells or particles in a stream.

Chain of CD33 (human) (P20138 18-364): as above

On to murine My9-6 antibody, for which the equilibrium dissociation constant (Kd) – broadly, the constant that tells how readily two partners part at equilibrium – in test [1] is 1.1 nM; in test [2], 0.0513 nM; in test [3] it was 0.174 nM.

B1: My9-6-DM1 immunoconjugate (antibody, IgG1, V domains shown)
VH: QVQLQQPGAEVVKPGASVKMSCKASGYTFTSYYIHWIKQTPGQGLEWVGVIYPGNDDISYNQKFKGKATLTADKSSTTAYMQLSSLTSEDSAVYYCAREVRLRYFDVWGAGTTVTVSS
VL: NIMLTQSPSSLAVSAGEKVTMSCKSSQSVFFSSSQKNYLAWYQQIPGQSPKLLIYWASTRESGVPDRFTGSGSGTDFTLTISSVQSEDLAIYYCHQYLSSRTFGGGTKLEIKR
modifications: DM1 (thiol-containing maytansinoid) linked by disulfide through SPP; 3-5 pyridyldithio groups introduced per molecule of antibody; residues and chain not stated
In the case of B1, the binding result in test [4] was “binds”.
